The values that follow are results of earlier work, collected in paper PMC3058932.

In data set [1] the target is GRP receptor (Homo sapiens) (UniProt P30550). Briefly: PC-3 membrane binding.
In data set [2] the target is GRP receptor (Rattus norvegicus) (UniProt P52500). Briefly: rat brain membrane binding.
Chain of UniProt P52500 (P52500 whole entry): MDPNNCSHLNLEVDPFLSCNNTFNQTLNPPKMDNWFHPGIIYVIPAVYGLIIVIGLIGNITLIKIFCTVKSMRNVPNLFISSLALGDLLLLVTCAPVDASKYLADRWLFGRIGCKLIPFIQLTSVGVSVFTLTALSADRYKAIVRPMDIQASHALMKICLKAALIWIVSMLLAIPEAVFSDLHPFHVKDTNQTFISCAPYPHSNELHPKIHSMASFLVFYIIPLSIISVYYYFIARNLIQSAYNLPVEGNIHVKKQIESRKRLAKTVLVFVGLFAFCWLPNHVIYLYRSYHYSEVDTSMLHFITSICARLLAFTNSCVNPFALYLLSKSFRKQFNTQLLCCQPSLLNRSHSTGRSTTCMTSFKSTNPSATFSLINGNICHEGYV

Chain of UniProt P30550 (P30550 whole entry): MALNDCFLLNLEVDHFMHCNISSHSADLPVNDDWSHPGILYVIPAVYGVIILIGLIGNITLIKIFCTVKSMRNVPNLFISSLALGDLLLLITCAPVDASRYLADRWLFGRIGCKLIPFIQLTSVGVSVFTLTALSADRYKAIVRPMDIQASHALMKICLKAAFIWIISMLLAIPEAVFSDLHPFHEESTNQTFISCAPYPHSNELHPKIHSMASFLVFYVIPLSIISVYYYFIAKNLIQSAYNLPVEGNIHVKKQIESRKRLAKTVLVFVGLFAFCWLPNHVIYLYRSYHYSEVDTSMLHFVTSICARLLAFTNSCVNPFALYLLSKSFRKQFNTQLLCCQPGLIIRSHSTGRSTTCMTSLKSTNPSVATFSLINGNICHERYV

Usually Ki stands for a dissociation constant, usually derived from enzyme kinetics or from competition with a known ligand. In the case of bombesin (from UniProt P84214), the inhibition constant Ki in data set [1] is 1.7 nM; in data set [2] it was 4.3 nM.
